Measurements published in US20040236073A1 (MEDICAL RESEARCH COUNCIL, published 2004).

Columns and labels:
[1] = target: the molecule itself; assay: X-ray crystal structure of the NK1-heparin complex, crystal type A; self-association
[2] = target: the molecule itself; assay: BS3 cross-linking with western blot, and gel filtration, with equimolar 14-mer heparin; self-association
Method: (§1) This was carried out by gel filtration chromatography and cross-linking experiments. For gel filtration, wt- or mutant NK1 (0.5 mg/ml) were incubated for 2 hours in the presence or absence of equimolar concentration of 14-mer heparin in phosphate buffered saline (PBS) adjusted to 300 mM NaCl. Samples were then loaded onto an HR30 Superdex 200 column (Ammersham Pharmacia Biotech) and eluted at 0.5 ml/min.
(§2) For cross-linking, 10 μl of wt- or mutant-NK1 (0.1 mg/ml) were incubated in the absence or presence of an equimolar concentration of 14-mer heparin in PBS. After 2 hours incubation at room temperature, 1 μl of crosslinker (BS³, Pierce) was added at 100 fold molar excess, the reaction was continued for 30 minutes and then quenched with 1 μl of 1M Tris-Cl, pH 7.4. Reaction products were loaded onto 15% SDS-polyacrylamide gels and blotted onto a nitrocellulose membrane (Schleicher & Schuell). […] HRP activity was detected after 3 further washes in PBS+0.2% Tween 20 using a chemiluminescent substrate (Pierce).
(§3) Cross-linking (Schwall et al., 1996) and gel filtration (Chirgadze et al., 1999) experiments were employed first in order to characterize heparin-mediated oligomerization of wt NK1 in solution. […] Cross-linked proteins were analyzed by western blotting and detected with an anti-HGF/SF polyclonal antibody (1W53). […]

[3] = target: the molecule itself; assay: BS3 cross-linking with western blot, and gel filtration (Superdex 200), with equimolar 14-mer heparin; self-association
Method: as §1, §2, §3

Protein	binding result [2]	also measured
wild-type NK1 fragment of HGF/SF (amino acids 28-210) (ligand, Expressed in P. pastoris; Forms a head-to-tail dimer in the crystals and a heparin-dependent dimer in solution; also called wt-NK1; wt NK1) YAEGQRKRRNTIHEFKKSAKTTLIKIDPALKIKTKKVNTADQCANRCTRNKGLPFTCKAFVFDKARKQCLWFPFNSMSSGVKKEFGHEFDLYENKDYIRNCIIGKGRSYKGTVSITKSGIKCQPWSSMIPHEHSFLPSSYRGKDLQENYCRNPRGEEGGPWCFTSNPEVRYEVCDIPQCSEVE	–	binding result [1]: binds
NK1 mutant 1K1 (K132E:R134E) (ligand, K domain reverse-charge mutant of NK1) YAEGQRKRRNTIHEFKKSAKTTLIKIDPALKIKTKKVNTADQCANRCTRNKGLPFTCKAFVFDKARKQCLWFPFNSMSSGVKKEFGHEFDLYENKDYIRNCIIGEGESYKGTVSITKSGIKCQPWSSMIPHEHSFLPSSYRGKDLQENYCRNPRGEEGGPWCFTSNPEVRYEVCDIPQCSEVE	binds	–
NK1 mutant HP11 (R73E:R76E) (ligand, N domain reverse-charge mutant of NK1; Expressed in P. pastoris) YAEGQRKRRNTIHEFKKSAKTTLIKIDPALKIKTKKVNTADQCANECTENKGLPFTCKAFVFDKARKQCLWFPFNSMSSGVKKEFGHEFDLYENKDYIRNCIIGKGRSYKGTVSITKSGIKCQPWSSMIPHEHSFLPSSYRGKDLQENYCRNPRGEEGGPWCFTSNPEVRYEVCDIPQCSEVE	–	binding result [3]: no binding
NK1 mutant 1K2 (K170E:R181E) (ligand, K domain reverse-charge mutant of NK1) YAEGQRKRRNTIHEFKKSAKTTLIKIDPALKIKTKKVNTADQCANRCTRNKGLPFTCKAFVFDKARKQCLWFPFNSMSSGVKKEFGHEFDLYENKDYIRNCIIGKGRSYKGTVSITKSGIKCQPWSSMIPHEHSFLPSSYRGEDLQENYCRNPEGEEGGPWCFTSNPEVRYEVCDIPQCSEVE	binds	–
